{"source": "paper PMC2926597", "binders": {"B1": {"name": "TNFa ARE AU-12mer (ssRNA)", "RNA": "UAUUUAUUAUUU"}}, "molecular_target": "T1, KSRP KH23 (KH2-KH3 di-domain) (Homo sapiens, UniProt Q92945 233-418)", "T1 sequence": "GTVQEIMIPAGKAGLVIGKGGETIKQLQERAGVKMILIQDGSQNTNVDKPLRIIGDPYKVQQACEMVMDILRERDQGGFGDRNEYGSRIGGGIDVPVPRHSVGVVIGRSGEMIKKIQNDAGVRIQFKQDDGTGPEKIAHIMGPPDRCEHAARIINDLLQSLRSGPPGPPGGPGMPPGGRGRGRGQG", "test": "CD titration"}
{"binder": "B1", "values": [{"measurement": "Kd", "result": "1000 ± 100", "unit": "nM"}]}
